Assay results taken from publication PMC8292422 (Nature Communications, 2021).

Experiments:
DrBphP = biological target: T1, DrBphP (Deinococcus radiodurans, UniProt Q9RZA4); experiment: Phos-tag gel, dephosphorylation of phospho-DrRR with and without ATP; assay type: biochemical; details: 1 mM ATP, phospho-DrRR as substrate, 5 mM MgCl2, pH 7.8, 25 °C, dark or red light
T1 construct: gene bphP; full length (755 residues), C-terminal His6 tag, pET21b(+), E. coli BL21(DE3), assembled with biliverdin
T1 sequence (Q9RZA4 1-755): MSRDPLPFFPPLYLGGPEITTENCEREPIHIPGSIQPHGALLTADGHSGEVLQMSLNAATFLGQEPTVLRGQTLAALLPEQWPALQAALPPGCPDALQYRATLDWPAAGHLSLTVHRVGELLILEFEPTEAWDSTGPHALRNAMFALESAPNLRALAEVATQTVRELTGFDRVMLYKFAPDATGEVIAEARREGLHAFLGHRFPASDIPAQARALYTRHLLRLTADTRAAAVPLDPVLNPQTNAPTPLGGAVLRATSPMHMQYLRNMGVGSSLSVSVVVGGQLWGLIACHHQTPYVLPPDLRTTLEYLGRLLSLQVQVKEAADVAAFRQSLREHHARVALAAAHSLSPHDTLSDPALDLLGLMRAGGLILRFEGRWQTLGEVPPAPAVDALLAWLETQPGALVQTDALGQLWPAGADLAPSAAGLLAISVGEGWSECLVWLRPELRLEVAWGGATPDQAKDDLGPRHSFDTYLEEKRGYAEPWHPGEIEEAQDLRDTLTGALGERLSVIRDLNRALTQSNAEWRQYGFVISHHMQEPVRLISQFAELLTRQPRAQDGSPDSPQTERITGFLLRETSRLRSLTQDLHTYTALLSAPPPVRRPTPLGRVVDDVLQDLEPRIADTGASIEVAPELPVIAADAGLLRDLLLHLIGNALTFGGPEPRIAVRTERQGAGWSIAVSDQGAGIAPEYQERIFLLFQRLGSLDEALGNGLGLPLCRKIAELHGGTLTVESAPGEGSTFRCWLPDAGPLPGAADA

AtRR1 = biological target: T2, AtRR1 (Agrobacterium fabrum, UniProt Q7CY46); experiment: chemical phosphorylation, Phos-tag gel; assay type: biochemical; details: 50 mM acetyl phosphate, 5 mM MgCl2, pH 7.8, 37 °C, 30 min
T2 construct: gene Atu1989; REC-domain-only response regulator, His6 tag, pET21b(+) with N-terminal T7 tag, E. coli BL21(DE3)
T2 sequence (Q7CY46 1-151): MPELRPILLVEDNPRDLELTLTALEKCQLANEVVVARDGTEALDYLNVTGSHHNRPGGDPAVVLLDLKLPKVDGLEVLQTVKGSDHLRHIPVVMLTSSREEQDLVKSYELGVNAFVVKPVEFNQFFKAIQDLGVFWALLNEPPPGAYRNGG

[1] = biological target: T3, response regulator from Deinococcus radiodurans (DrRR) (Deinococcus radiodurans strain R1, UniProt Q9RZA5 1-149); experiment: ITC; Ca2+ buffer
T3 chain: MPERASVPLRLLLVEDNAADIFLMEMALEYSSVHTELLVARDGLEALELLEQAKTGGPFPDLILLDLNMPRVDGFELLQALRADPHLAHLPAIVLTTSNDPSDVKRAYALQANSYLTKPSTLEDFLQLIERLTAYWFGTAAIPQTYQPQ

[2] = biological target: T3, response regulator from Deinococcus …; experiment: ITC; Tris pH 8.0
[3] = biological target: T3, response regulator from Deinococcus …; experiment: ITC; 1 mM AMP-PNP
[4] = biological target: T3, response regulator from Deinococcus …; experiment: SPR; dark (D), kinetic
[5] = biological target: T3, response regulator from Deinococcus …; experiment: SPR; dark (D), kinetic
[6] = biological target: T3, response regulator from Deinococcus …; experiment: SPR; red light (R), kinetic
[7] = biological target: T3, response regulator from Deinococcus …; experiment: SPR; red light (R), kinetic
[8] = biological target: T3, response regulator from Deinococcus …; experiment: ITC; dark (D), 30 mM Tris/HCl, pH 8.0
DrBphP E536A variant [9] = biological target: DrBphP E536A variant (Deinococcus radiodurans strain R1, UniProt Q9RZA4 1-755, E536A, biliverdin chromophore (molar excess of biliverdin hydrochloride added to the lysate)); experiment: ITC
[10] = biological target: T4, bacteriophytochrome from Deinococcus radiodurans (DrBphP), wild type (Deinococcus radiodurans strain R1, UniProt Q9RZA4 1-755, biliverdin chromophore (molar excess of biliverdin hydrochloride added to the lysate; thioether linkage to the conserved cysteine within the PAS domain)); experiment: SPR; same sensorgrams as the dark steady-state SPR; 1:1 Langmuir kinetic fit of ka/kd; DrBphP 8-67 µM; details: both partners purified
T4 construct: Pr (dark or far-red) and Pfr (red light) states are told apart by the assay; source: E. coli BL21 (DE3), purified (NiNTA, SEC)
T4 sequence: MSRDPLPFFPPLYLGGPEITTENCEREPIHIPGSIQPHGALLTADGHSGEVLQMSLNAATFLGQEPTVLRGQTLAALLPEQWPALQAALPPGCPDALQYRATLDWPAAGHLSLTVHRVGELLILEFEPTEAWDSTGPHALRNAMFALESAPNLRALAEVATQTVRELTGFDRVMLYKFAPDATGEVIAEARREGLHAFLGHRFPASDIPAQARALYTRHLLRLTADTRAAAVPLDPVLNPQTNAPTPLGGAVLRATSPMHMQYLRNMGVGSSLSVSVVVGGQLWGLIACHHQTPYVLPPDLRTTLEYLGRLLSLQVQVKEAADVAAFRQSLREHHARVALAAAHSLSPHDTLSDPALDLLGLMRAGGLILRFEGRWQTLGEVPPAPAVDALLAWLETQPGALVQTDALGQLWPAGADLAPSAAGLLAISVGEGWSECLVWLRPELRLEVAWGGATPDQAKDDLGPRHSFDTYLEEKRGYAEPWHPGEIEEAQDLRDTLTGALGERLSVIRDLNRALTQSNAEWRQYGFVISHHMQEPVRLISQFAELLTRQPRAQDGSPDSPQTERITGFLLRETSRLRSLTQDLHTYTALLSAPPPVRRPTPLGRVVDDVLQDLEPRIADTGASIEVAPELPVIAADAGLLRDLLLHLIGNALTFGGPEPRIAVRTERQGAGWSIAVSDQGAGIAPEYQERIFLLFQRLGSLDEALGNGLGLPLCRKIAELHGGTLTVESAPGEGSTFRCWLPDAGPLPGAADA

[11] = biological target: T4, bacteriophytochrome from Deinococcus …; experiment: SPR; Biacore X; response regulator coupled (EDC/NHS) on a carboxymethyldextran chip, phytochrome flowed after red light (655 nm, Pfr); 20 mM HEPES, 300 mM NaCl, 5 mM MgCl2, 0.10% Tween20, pH 7.5; room temperature; steady-state fit; details: both partners purified
[12] = biological target: T4, bacteriophytochrome from Deinococcus …; experiment: ITC; MicroCal PEAQ-ITC; BphP (30-50 µM) in the cell in the Pr state (785 nm), RR (750-800 µM) in the syringe; 25 °C, dark; Tris/HCl pH 7.8, 5 mM MgCl2, 4 mM 2-mercaptoethanol, 5% ethylene glycol; single-site fit; also run with AMP-PNP or Ca2+ added; details: both partners purified
DrBphP E536A variant [13] = biological target: T5, DrBphP E536A variant (Deinococcus radiodurans strain R1, UniProt Q9RZA4 1-755, E536A, biliverdin chromophore (molar excess of biliverdin hydrochloride added to the lysate)); experiment: as above; details: both partners purified
T5 construct: source: E. coli BL21 (DE3), purified (NiNTA, SEC)
T5 sequence: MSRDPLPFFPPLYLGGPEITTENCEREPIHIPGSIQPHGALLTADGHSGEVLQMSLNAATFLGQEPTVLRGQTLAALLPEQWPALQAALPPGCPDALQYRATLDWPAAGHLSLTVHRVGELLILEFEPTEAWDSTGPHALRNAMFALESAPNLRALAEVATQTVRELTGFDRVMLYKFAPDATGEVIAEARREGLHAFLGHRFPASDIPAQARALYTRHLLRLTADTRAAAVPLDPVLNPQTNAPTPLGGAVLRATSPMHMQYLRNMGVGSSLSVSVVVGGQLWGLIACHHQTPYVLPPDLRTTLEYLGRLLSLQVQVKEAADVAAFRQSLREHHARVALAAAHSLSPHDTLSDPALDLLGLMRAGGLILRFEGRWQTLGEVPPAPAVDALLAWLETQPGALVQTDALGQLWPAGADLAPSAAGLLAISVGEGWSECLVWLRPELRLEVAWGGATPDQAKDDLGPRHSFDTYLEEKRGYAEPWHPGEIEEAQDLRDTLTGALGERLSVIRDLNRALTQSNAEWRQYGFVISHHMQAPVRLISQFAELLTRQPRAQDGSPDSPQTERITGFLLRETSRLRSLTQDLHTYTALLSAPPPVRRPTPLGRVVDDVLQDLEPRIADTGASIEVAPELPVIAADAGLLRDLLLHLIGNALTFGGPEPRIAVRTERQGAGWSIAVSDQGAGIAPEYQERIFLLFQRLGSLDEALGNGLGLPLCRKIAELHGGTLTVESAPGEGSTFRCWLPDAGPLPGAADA

[14] = biological target: T4, bacteriophytochrome from Deinococcus …; experiment: SPR; Biacore X; response regulator coupled (EDC/NHS) on a carboxymethyldextran chip, phytochrome flowed; dark (Pr, far-red 785 nm pre-illumination); 20 mM HEPES, 300 mM NaCl, 5 mM MgCl2, 0.10% Tween20, pH 7.5; room temperature; steady-state (Req) fit, 1:1 model; details: both partners purified
[15] = biological target: the molecule itself; experiment: SEC; EGFP-labeled response regulator alone; Superdex-200 Increase 3.2/300; 25 mM Tris/HCl pH 7.8, 5 mM MgCl2, 4 mM 2-mercaptoethanol, 5% ethylene glycol; 24 µl at 5 mg/ml; plotted at 280 nm

Molecule: Nc1ncnc2c1ncn2[C@@H]1O[C@H](COP(=O)(O)OP(=O)(O)OP(=O)(O)O)[C@@H](O)[C@H]1O [ATP]
- Phos-tag gel, dephosphorylation of phospho-DrRR with and without ATP (DrBphP): the phosphatase activity in DrBphP depended on ATP addition

Molecule: CC(=O)OP(=O)(O)O [acetyl phosphate]
- chemical phosphorylation, Phos-tag gel (AtRR1): whereas AtRR1 responded to the treatment weakly

B1: bacteriophytochrome from Deinococcus radiodurans (DrBphP), wild type (enzyme)
chain: MSRDPLPFFPPLYLGGPEITTENCEREPIHIPGSIQPHGALLTADGHSGEVLQMSLNAATFLGQEPTVLRGQTLAALLPEQWPALQAALPPGCPDALQYRATLDWPAAGHLSLTVHRVGELLILEFEPTEAWDSTGPHALRNAMFALESAPNLRALAEVATQTVRELTGFDRVMLYKFAPDATGEVIAEARREGLHAFLGHRFPASDIPAQARALYTRHLLRLTADTRAAAVPLDPVLNPQTNAPTPLGGAVLRATSPMHMQYLRNMGVGSSLSVSVVVGGQLWGLIACHHQTPYVLPPDLRTTLEYLGRLLSLQVQVKEAADVAAFRQSLREHHARVALAAAHSLSPHDTLSDPALDLLGLMRAGGLILRFEGRWQTLGEVPPAPAVDALLAWLETQPGALVQTDALGQLWPAGADLAPSAAGLLAISVGEGWSECLVWLRPELRLEVAWGGATPDQAKDDLGPRHSFDTYLEEKRGYAEPWHPGEIEEAQDLRDTLTGALGERLSVIRDLNRALTQSNAEWRQYGFVISHHMQEPVRLISQFAELLTRQPRAQDGSPDSPQTERITGFLLRETSRLRSLTQDLHTYTALLSAPPPVRRPTPLGRVVDDVLQDLEPRIADTGASIEVAPELPVIAADAGLLRDLLLHLIGNALTFGGPEPRIAVRTERQGAGWSIAVSDQGAGIAPEYQERIFLLFQRLGSLDEALGNGLGLPLCRKIAELHGGTLTVESAPGEGSTFRCWLPDAGPLPGAADA
modifications: biliverdin chromophore (molar excess of biliverdin hydrochloride added to the lysate; thioether linkage to the conserved cysteine within the PAS domain)
- Kd [1]: 2.8 µM
- Kd [2]: 35 µM
- Kd [3]: ~11 µM
- Kd [4]: 6.2 µM
- koff [5]: 0.0046 s⁻¹
- Kd [6]: 15.5 µM
- koff [7]: 0.0065 s⁻¹
- Kd [8]: 35 µM

B2: response regulator from Deinococcus radiodurans (DrRR) (natural protein)
chain: MPERASVPLRLLLVEDNAADIFLMEMALEYSSVHTELLVARDGLEALELLEQAKTGGPFPDLILLDLNMPRVDGFELLQALRADPHLAHLPAIVLTTSNDPSDVKRAYALQANSYLTKPSTLEDFLQLIERLTAYWFGTAAIPQTYQPQ
notes: consists only of a receiver (REC) domain; Forms dimers in the crystal (four monomers, two dimers in the asymmetric unit); also called Q9RZA5_DEIRA; source: E. coli BL21 (DE3), purified (NiNTA, SEC)
- Kd (DrBphP E536A variant [9]): 13 µM
- Kd [10]: ~10 µM
- Kd [11]: 60 ± 7 µM
- Kd [12]: 8.1 µM
- binding result (DrBphP E536A variant [13]): binds
- Kd [14]: 43 ± 8 µM

B3: EGFP-labeled AtRR1 (natural protein)
chain: MPELRPILLVEDNPRDLELTLTALEKCQLANEVVVARDGTEALDYLNVTGSHHNRPGGDPAVVLLDLKLPKVDGLEVLQTVKGSDHLRHIPVVMLTSSREEQDLVKSYELGVNAFVVKPVEFNQFFKAIQDLGVFWALLNE
notes: also called EGFP-AtRR1; source: E. coli BL21 (DE3), purified (NiNTA, SEC)
- stoichiometry N [15]: 2
